B1: KGC-HDAC5c (C-terminal portion of Kusabira Green protein fused with HDAC5c), wild type [human] / KGN-SRD3c (N-terminal portion of Kusabira Green protein fused with SRD3c) [human] (parent complex)
chain 1: LFTTGVVYDTFMLKHQCMCGNTHVHPEHAGRIQSIWSRLQETGLLSKCERIRGRKATLDEIQTVHSEYHTLLYGTSPLNRQKLDSKKLLGPISQKMYAVLPCGGIGVDSDTVWNEMHSSSAVRMAVGCLLELAFKVAAGELKNGFAIIRPPGHHAEESTAMGFCFFNSVAITAKLLQQKLNVGKVLIVDWDIHHGNGTQQAFYNDPSVLYISLHRYDNGNFFPGSGAPEEVGGGPGVGYNVNVAWTGGVDPPIGDVEYLTAFRTVVMPIAHEFSPDVVLVSAGFDAVEGHLSPLGGYSVTARCFGHLTRQLMTLAGGRVVLALEGGHDLTAICDASEACVSALLSVELQPLDEAVLQQKPNINAVATLEKVIEIQSKHWSCVQKFAAGLGRSLREAQAGETEEAETVS
chain 2: EGGMSVTQCSKEDGRSSSGPPHETAAPKRTYDMMEGRVGRAISSASIEGLMGRAIPPERHSPHHLKEQHHIRGSITQGIPRSYVEAQEDYLRREAKLLKREGTPPPPPPSRDLTEAYKTQALGPLKLKPAHEGLVATVKEAGRSIHEIPREELRHTPELPLAPRPLKEGSITQGTPLKYDTGASTTGSKKHDVRSLIGSPGRTFPPVHPLDVMADARALERACY
B2: KGC-HDAC4c (C-terminal portion of Kusabira Green protein fused with HDAC4c), wild type [human] / KGN-SRD3c (N-terminal portion of Kusabira Green protein fused with SRD3c) [human] (parent complex)
chain 1: PRFTTGLVYDTLMLKHQCTCGSSSSHPEHAGRIQSIWSRLQETGLRGKCECIRGRKATLEELQTVHSEAHTLLYGTNPLNRQKLDSKKLLGSLASVFVRLPCGGVGVDSDTIWNEVHSAGAARLAVGCVVELVFKVATGELKNGFAVVRPPGHHAEESTPMGFCYFNSVAVAAKLLQQRLSVSKILIVDWDVHHGNGTQQAFYSDPSVLYMSLHRYDDGNFFPGSGAPDEVGTGPGVGFNVNMAFTGGLDPPMGDAEYLAAFRTVVMPIASEFAPDVVLVSSGFDAVEGHPTPLGGYNLSARCFGYLTKQLMGLAGGRIVLALEGGHDLTAICDASEACVSALLGNELDPLPEKVLQQRPNANAVRSMEKVMEIHSKYWRCLQRTTSTAGRSLIEAQTCENEEAET
chain 2: B1 chain 2

Variants of: B1
Assay: BiFC assay (fluorescence spectrophotometer); HEK293 cells; KGN-SRD3c (1 μg) and KGC-HDAC5c mutant (1 μg); 48 hours of transfection; whole cell lysates; parent: 9.3; read off a plot

response [RFU] | Variant
~3.8 | chain 1 P150L
~4 | chain 1 G197D
~4 | chain 1 G326C
~5.8 | chain 1 F163S
~5.1 | chain 1 D110G
~4.1 | chain 1 G325V
~3.9 | chain 1 G219W
~5.9 | chain 1 P151S
~3.9 | chain 1 F222L
~3.7 | chain 1 G127E
~3.9 | chain 1 G195C
~3.7 | chain 1 N196D
~4.4 | chain 1 C164R
~3.9 | chain 1 S118P
~4.9 | chain 1 H154R
~5 | chain 1 G295C
~4.1 | chain 1 G152E

Variants of: B2
Assay: BiFC assay (fluorescence spectrophotometer); HEK293 cells; KGN-SRD3c (1 μg) and KGC-HDAC4c mutant (1 μg); 48 hours of transfection; whole cell lysates; parent: 8; read off a plot

response [RFU] | Variant
~4.6 | chain 1 A155T
~4.1 | chain 1 P151H
~4.3 | chain 1 H154Y
~4.1 | chain 1 C164Y
~4.1 | chain 1 F222L
~4.3 | chain 1 A125D
~4.6 | chain 1 G195R
~3.9 | chain 1 H194R
~4.2 | chain 1 T111P
~4.4 | chain 1 S118P
~5.3 | chain 1 G219A
~3.9 | chain 1 G152E
~4.2 | chain 1 N196S
~4.5 | chain 1 F163S
~6.8 | chain 1 G197R
~4.2 | chain 1 P150H
~5.5 | chain 1 D110Y

Reference: publication PMC4498904, “Mutagenesis Study Reveals the Rim of Catalytic Entry Site of HDAC4 and -5 as the Major Binding Surface of SMRT Corepressor” (PLoS ONE, 2015)
